In article PMC3154423:

Experiments:
Assay in all cases: ITC
[1] = molecular target: Jun bZIP R259A;Fos bZIP R143A (human;human, UniProt P05412;P01100 252-315;137-200, R259A|R143A)
[2] = molecular target: Jun bZIP R263A;Fos bZIP R158A (human;human, UniProt P05412;P01100 252-315;137-200, R263A|R158A)
[3] = molecular target: Jun bZIP R263A;Fos bZIP K148A (human;human, UniProt P05412;P01100 252-315;137-200, R263A|K148A)
[4] = molecular target: Jun bZIP K273A;Fos bZIP R143A (human;human, UniProt P05412;P01100 252-315;137-200, K273A|R143A)
Jun bZIP K273A;Fos bZIP R143A, sequence (P05412 252-315 K273A, chain 1 of 2): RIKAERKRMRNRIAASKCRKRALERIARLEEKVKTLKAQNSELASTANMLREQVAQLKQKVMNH
Jun bZIP K273A;Fos bZIP R143A, sequence (P01100 137-200 R143A, chain 2 of 2): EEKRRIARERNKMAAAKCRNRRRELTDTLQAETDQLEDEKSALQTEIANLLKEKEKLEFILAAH

[5] = molecular target: Jun bZIP R272A;Fos bZIP R144A (human;human, UniProt P05412;P01100 252-315;137-200, R272A|R144A)
Jun bZIP R272A;Fos bZIP R144A, sequence (P05412 252-315 R272A, chain 1 of 2): as the sequence (P05412 252-315 K273A, chain 1 of 2) above, with R21A, A22K counted along it
Jun bZIP R272A;Fos bZIP R144A, sequence (P01100 137-200 R144A, chain 2 of 2): as the sequence (P01100 137-200 R143A, chain 2 of 2) above, with A7R, R8A counted along it

[6] = molecular target: Jun bZIP R261A;Fos bZIP R144A (human;human, UniProt P05412;P01100 252-315;137-200, R261A|R144A)
Jun bZIP R261A;Fos bZIP R144A, sequence (P05412 252-315 R261A, chain 1 of 2): as the sequence (P05412 252-315 K273A, chain 1 of 2) above, with R10A, A22K counted along it
Jun bZIP R261A;Fos bZIP R144A, sequence (P01100 137-200 R144A, chain 2 of 2): as the sequence (P01100 137-200 R143A, chain 2 of 2) above, with A7R, R8A counted along it

[7] = molecular target: Jun bZIP R270A;Fos bZIP R155A (human;human, UniProt P05412;P01100 252-315;137-200, R270A|R155A)
Jun bZIP R270A;Fos bZIP R155A, sequence (P05412 252-315 R270A, chain 1 of 2): as the sequence (P05412 252-315 K273A, chain 1 of 2) above, with R19A, A22K counted along it
Jun bZIP R270A;Fos bZIP R155A, sequence (P01100 137-200 R155A, chain 2 of 2): as the sequence (P01100 137-200 R143A, chain 2 of 2) above, with A7R, R19A counted along it

Jun-Jun bZIP K268A = Jun-Jun bZIP K268A (human, UniProt P05412 252-315, K268A)
Jun-Jun bZIP K268A, sequence (P05412 252-315 K268A): as the sequence (P05412 252-315 K273A, chain 1 of 2) above, with K17A, A22K counted along it

[8] = molecular target: Jun bZIP K268A;Fos bZIP R144A (human;human, UniProt P05412;P01100 252-315;137-200, K268A|R144A)
Jun bZIP K268A;Fos bZIP R144A, sequence (P05412 252-315 K268A, chain 1 of 2): as the sequence (P05412 252-315 K273A, chain 1 of 2) above, with K17A, A22K counted along it
Jun bZIP K268A;Fos bZIP R144A, sequence (P01100 137-200 R144A, chain 2 of 2): as the sequence (P01100 137-200 R143A, chain 2 of 2) above, with A7R, R8A counted along it

Jun-Jun bZIP R259A = Jun-Jun bZIP R259A (human, UniProt P05412 252-315, R259A)
Jun-Jun bZIP R259A, sequence (P05412 252-315 R259A): as the sequence (P05412 252-315 K273A, chain 1 of 2) above, with R8A, A22K counted along it

[9] = molecular target: Jun bZIP K258A;Fos bZIP K153A (human;human, UniProt P05412;P01100 252-315;137-200, K258A|K153A)
Jun bZIP K258A;Fos bZIP K153A, sequence (P05412 252-315 K258A, chain 1 of 2): as the sequence (P05412 252-315 K273A, chain 1 of 2) above, with K7A, A22K counted along it
Jun bZIP K258A;Fos bZIP K153A, sequence (P01100 137-200 K153A, chain 2 of 2): as the sequence (P01100 137-200 R143A, chain 2 of 2) above, with A7R, K17A counted along it

[10] = molecular target: Jun bZIP R270A;Fos bZIP R146A (human;human, UniProt P05412;P01100 252-315;137-200, R270A|R146A)
Jun bZIP R270A;Fos bZIP R146A, sequence (P05412 252-315 R270A, chain 1 of 2): as the sequence (P05412 252-315 K273A, chain 1 of 2) above, with R19A, A22K counted along it
Jun bZIP R270A;Fos bZIP R146A, sequence (P01100 137-200 R146A, chain 2 of 2): as the sequence (P01100 137-200 R143A, chain 2 of 2) above, with A7R, R10A counted along it

[11] = molecular target: Jun bZIP R259A;Fos bZIP R146A (human;human, UniProt P05412;P01100 252-315;137-200, R259A|R146A)
Jun bZIP R259A;Fos bZIP R146A, sequence (P05412 252-315 R259A, chain 1 of 2): as the sequence (P05412 252-315 K273A, chain 1 of 2) above, with R8A, A22K counted along it
Jun bZIP R259A;Fos bZIP R146A, sequence (P01100 137-200 R146A, chain 2 of 2): as the sequence (P01100 137-200 R143A, chain 2 of 2) above, with A7R, R10A counted along it

[12] = molecular target: Jun bZIP K268A;Fos bZIP K153A (human;human, UniProt P05412;P01100 252-315;137-200, K268A|K153A)
Jun bZIP K268A;Fos bZIP K153A, sequence (P05412 252-315 K268A, chain 1 of 2): as the sequence (P05412 252-315 K273A, chain 1 of 2) above, with K17A, A22K counted along it
Jun bZIP K268A;Fos bZIP K153A, sequence (P01100 137-200 K153A, chain 2 of 2): as the sequence (P01100 137-200 R143A, chain 2 of 2) above, with A7R, K17A counted along it

[13] = molecular target: Jun bZIP R272A;Fos bZIP R143A (human;human, UniProt P05412;P01100 252-315;137-200, R272A|R143A)
Jun bZIP R272A;Fos bZIP R143A, sequence (P05412 252-315 R272A, chain 1 of 2): as the sequence (P05412 252-315 K273A, chain 1 of 2) above, with R21A, A22K counted along it
Jun bZIP R272A;Fos bZIP R143A, sequence (P01100 137-200 R143A, chain 2 of 2): as the sequence (P01100 137-200 R143A, chain 2 of 2) above

Jun-Jun bZIP R261A = Jun-Jun bZIP R261A (human, UniProt P05412 252-315, R261A)
Jun-Jun bZIP R261A, sequence (P05412 252-315 R261A): as the sequence (P05412 252-315 K273A, chain 1 of 2) above, with R10A, A22K counted along it

[14] = molecular target: Jun bZIP R270A;Fos bZIP R157A (human;human, UniProt P05412;P01100 252-315;137-200, R270A|R157A)
Jun bZIP R270A;Fos bZIP R157A, sequence (P05412 252-315 R270A, chain 1 of 2): as the sequence (P05412 252-315 K273A, chain 1 of 2) above, with R19A, A22K counted along it
Jun bZIP R270A;Fos bZIP R157A, sequence (P01100 137-200 R157A, chain 2 of 2): as the sequence (P01100 137-200 R143A, chain 2 of 2) above, with A7R, R21A counted along it

Jun bZIP R259A;Fos bZIP R143A, sequence (P05412 252-315 R259A, chain 1 of 2): as the sequence (P05412 252-315 K273A, chain 1 of 2) above, with R8A, A22K counted along it
Jun bZIP R259A;Fos bZIP R143A, sequence (P01100 137-200 R143A, chain 2 of 2): as the sequence (P01100 137-200 R143A, chain 2 of 2) above
Jun bZIP R263A;Fos bZIP R158A, sequence (P05412 252-315 R263A, chain 1 of 2): as the sequence (P05412 252-315 K273A, chain 1 of 2) above, with R12A, A22K counted along it
Jun bZIP R263A;Fos bZIP R158A, sequence (P01100 137-200 R158A, chain 2 of 2): as the sequence (P01100 137-200 R143A, chain 2 of 2) above, with A7R, R22A counted along it
Jun bZIP R263A;Fos bZIP K148A, sequence (P05412 252-315 R263A, chain 1 of 2): as the sequence (P05412 252-315 K273A, chain 1 of 2) above, with R12A, A22K counted along it
Jun bZIP R263A;Fos bZIP K148A, sequence (P01100 137-200 K148A, chain 2 of 2): as the sequence (P01100 137-200 R143A, chain 2 of 2) above, with A7R, K12A counted along it

B1: TRE duplex 15-mer (dsDNA)
DNA 1: CGCGTGACTCACCCC
DNA 2: GGGGTGAGTCACGCG
[1]
  Kd: 3490 ± 140 nM
[2]
  Kd: 1120 ± 70 nM
[3]
  Kd: 1130 ± 10 nM
[4]
  Kd: 1220 ± 150 nM
[5]
  Kd: 3720 ± 360 nM
[6]
  Kd: 1840 ± 80 nM
[7]
  Kd: 28900 ± 470 nM
Jun-Jun bZIP K268A
  Kd: 400 ± 20 nM
[8]
  Kd: 1790 ± 20 nM
Jun-Jun bZIP R259A
  Kd: 5250 ± 60 nM
[9]
  Kd: 540 ± 30 nM
[10]
  Kd: 1450 ± 130 nM
[11]
  Kd: 2260 ± 140 nM
[12]
  Kd: 470 ± 60 nM
[13]
  Kd: 910 ± 70 nM
Jun-Jun bZIP R261A
  Kd: 380 ± 20 nM
[14]
  Kd: 3560 ± 130 nM
